# Assay: yeast display, Sf9 membrane polyspecificity reagent, FACS + sequencing; frameworks hold sequencing errors
# Summary of the method: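 Galactose-induced (36–48 hours) yeast carrying a synthetic nanobody display library were exposed to 10% biotinylated, detergent-solubilized Sf9 membrane reagent at 4 °C for 1 hour. FACS followed streptavidin microbead enrichment, using low and high (top ~1%) gates for expression (anti-HA) and reagent binding (streptavidin). Colony PCR, MiSeq 2 × 250 sequencing and CDR-length filtering followed. Labels for polyreactivity reflect the gate of origin.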
row,Sequence,polyreactivity (PSR sort gate)
1,QVQLVESGVGLVQAGGSLLLSCAASGFISGSYAIGWYRQAPGKERELVADISRRGSSTYYADSVKGRFTISRDNAKNTVYLQMNSLKPEDTAVYVCNAVPYGNGAMDYWGQGTQVTVSS,high polyreactivity
2,QVQLVESGGGLVQAGGSLRLSCAASGFTFSKNTMGWYRQAPGKERELVAVITRGGGTYYADSVKGRFTISRDNAKNTVYLQMNSLKPEDTAVYYCAVKRNTAYRQAYYLDDYWGQGTQVTVSS,high polyreactivity
3,QVQLVESGGGLVQAGGSLRLSCAASGYTFGKNAMGWYRQAPGKERELVAAISRSGGSTFYADSVKGRFTISRDNAKHTVYLQMNSLKPEDTAVYYCAARSYVRFDYWGQGTQVTVSS,high polyreactivity
4,QVQLVESVGGLVQAGGSLRLSCAASGSTFLVYAMGWYRQAPGKERELVAAITQIDGSTYYADSVKGRFTISRDNAKNTVYLQMNSLKPEDTAVYYCAARYFWTYEYDYWGQGTQVTVSS,low polyreactivity
5,QVQLVESGGGLVQAGGSLRLSCAASGITFYWYTMGLYRQAPGKERELVAAISSRGSSTRYADSVKGRFTISRDNAKNTVYLQMNSLKPEDTAVYYCAADDLSDGYYDEAYEDNYWGQGTQVTVSS,low polyreactivity
6,QVQLVESGVGLVQAGVSLRLSSAASGSIFRLYTMGWYRQATGKERELVAAITWSGGRTYYADSVKGRFTISRDNAKNTVYLQMNSLKPEDTAVYYCAADNWYSTYDYWGRGTQVTVSS,high polyreactivity
7,QVQLVESGGGLVQAGGSLRLSCAASGYIFPYYPMGWYRQAPGKQRELVAAISRSGGGTYYADSVKGRFTISRDIANNTVYLQMNSLKPEDTALYYCNRRSGHVHEYDYWGQGTQVTVSS,low polyreactivity
8,QVQLVESGGGLVQAGGSLRLSCAASGRIFGNNVMGWYRQEPGKERELVAAITFSGTSTYYADSVKGRFTISRDNAKNTVYLQMNSLKPEDTAVYYCAKYRYADYYSPGYDYWGQGTQVTVSS,low polyreactivity
9,QVQLVESGGGLVQAGGSLRLSCAASGRTFGYYAMGWYRPAPGKERELVAAISSNTDSTYYADSVKGRFTISRDNAKNTVYLQMNSLKPEDTAVYYCAAEAYSYYPGTYEDDYWGQGTQVTVSS,low polyreactivity
10,QVQLVESGGGLVQAGGSLRLSCAASGFTIRRYAMGWYRQAPGKERALVAAITTGGSTYYADSVKGRFTISRDNAKNTVYLQMYSLKPEDTAVYYCATDTYPYPLYYSPGAYGYWGQGTQVTVSS,high polyreactivity
11,QVQLVESGGGLVQAGGSLRLSCAASGRIFRGYAMGWYRQAPGTERELVAAISRRGGSTYYAASVKGRFTISRDNAKNTVYLQNNSLKPEDTAVYYCNADGVHYVAYAGGYWGQGTQVTVSS,high polyreactivity
12,QVQLVESGGGLVQAGGSLRLSCAASGSLFYSYAMGWDRPAPGKERELVAAIRRDGSTNYADSVKGRFTISRDNAKNTVYLQMNSLKPEDTAVYYCNADGWNTYIGPRRYRYDYWGQGTQVTVSS,low polyreactivity
13,QVQLVESGGGLVQAGGSLRLSCAASGYTFLGNAMGWYRQAPGKERELVAAISSGGTTYYADSVKGRFTISRDNEKNTVYFQMNSLKPEDTAVYFCATVFRDYDFNHWGQGTQVTVSS,low polyreactivity
14,QVQLVESGGGLVQAGGSLRLSCAASGRTFYRYAMGWYRQAPGKERELVASITRDGRTNYADSVKGRFTISRDNAKNTVYLQMNSLKPEDTAVYYCNAKHKITHSSSDYWGQGTQVTVSS,high polyreactivity
15,QVQLVESGVGLVQAGGSLRLSCAASGSTFSIYALGWYRQAPGKERELVAAISWDSDDTYYADSVNGRFTISRDNAKNTVYLQMNSLKPEDTAVYYCAADRLDRYYYWGQGTQVTVSS,low polyreactivity
16,QVQLVESGGGLVQAGGSLRLRCAASGFTYSYYAMGWYRQAPGKERELVAAINSGGSTYYADSVKGRFTISRDNAKNTVFLLMNSLKPEDTAVYYCAAVYSPGRGYGYIYYYWGQGSQVTVSS,high polyreactivity
17,QVQLVESGGGLVQAGGSLRLSCAAPGSIFPRYAMGWYRQAPGKERELVAAISRSGGSTYYADSVKGRFTISRDNAKNTVSLQRNSLKPEDTAVYYCATDKVSHRRYDYWGQGTQVTVSS,high polyreactivity
18,QVQLVESGGGLVQAGGSLRLSCAASGIMFFYYAMGWYRQAPGKERELVAAISNSDTSTSYADSVKGRFTISRDNAKNSVYFQMNSLKPEDTAVYYCNADSPSLSGDYWGQGTQVTVSS,low polyreactivity
19,QVQLVESGGGLVQARGSLRLSCAPSGFTFEAYAMGWYRQAPGKERELVAAISSSDTTSYADSVKGRFTISRDNAKNTVYLQMNSLKREDTAVYYCAADDWYTGYDYWGQGTQVTVSS,high polyreactivity
20,QVHLVESVGGLVQAGGSLRLSCAASGRTFPYNAMGWYIQAPGKERELVAVISKGGGRTYYADSVKGRFTISLDNAKNTVYLQMNSLKPEDTAVYYCDARYDGSSDYRLNYWGQGTQVTVSS,high polyreactivity
21,QVQLVESGGGLVQAGGSLRLSCAASGRTLWIYAMGWYRQAPGKERELVASITTRGGSTYYADSVKGRFTISRDNAKNTVYLQMNSLKPEDTAVYYCAAEGYTYYTYYPHDYWGQGTQVTVSS,high polyreactivity
22,QVQLVESGGGLVQAGGSLRLRCAASGSIIGIYAMGWYRQAPGKERELVAAISWSGGSTYYADSVKGRFTISRDNAKNTVYLQMISLKPVDTAVYYCAARGHYQYYWGQGTQVTVSS,low polyreactivity

row,Sequence,polyreactivity (PSR sort gate)
1,QDQLVESGGGLVQAGGSLRLSCAASGSTFYIYAMGWYRQAPGQERELVARISGSRGSTYYADSVKGRFTISRDNAKNTVYLQMNSLKPEDTAVYYCAADDIYNYYQYYAFPYYRYDYWGQGTQVTVSS,low polyreactivity
2,QVQLVESGGGLVQAGGSLRLSCAASGRTFYYYAMGWYRQAPGKERELVATITKSSGSTSYADSVKGRFTISRDNAKNTVYLQMNSLKPEDTAVYYCAKVFRSGGVYRYDYWGQGTQVTVSS,high polyreactivity
3,QVQLVESGGGLVQAGCSLRLICAAAGIIFSSYAMGWYRQAPGKERELVAAISWNGGRTYYADSVKGRFTISRDNAKNTVYLQMNSLKPEDTAVYYCAAPHSVPDLHSGDYWGQGTQVTVSS,low polyreactivity
4,QVQLVESGGGLVQAGGSLRLSCAASGNIFLYYAMGWYRQAPGKERELVADIDSSGASTYYADSVKGRFTISRDNAKNTVYLQMNSLKPEDTAVYNCAARAERVREYNYWGQGTQVTVSS,low polyreactivity
5,QVQLVESGGGLVQAGGSLRLSCAASGSTFIYYTMGWYRQAPGKERELVAASSWSGGNTYYADSVKGRFTISRDNAKNTVYLQMNSLKPEDTAVYYCAATRFSQYDWGQGTQVTVSS,high polyreactivity
6,QVQLVESGGGLVLAGGSLRLSCAASGRIFWNYAMGWYRQAPGKERELVASINWSGGSTYYADSVKGRFTISRDNAKNTVYLQMNSLKPEDTAVYYCNKDGRVYLDHDYWGQGTQVTVSS,low polyreactivity
7,QVQLVESGGGLVPAGGSLRLSCAASGRIFRVYAMGWYRQAPGKERELVASISSGGSTNYADSVKGRFTISRDNAKNTVYLQMNSLKPEDTAVYYCAADYWYRLFWYYGAPLDYWGQGTQVTVSS,low polyreactivity
8,QVQLVESGGGLVQAGGSLRLSCAASGFTFPPYAMGLYIQATGKETELVAAITVGGGRTYYADSVKARFTISRDNARNTVYLQMNWLKPVDTAVYYCDADSHASTYDYWGQGTQVTVSS,low polyreactivity
9,QVQLVESGGGLVQAGGSLRLSCAASGFIFWSNAMGWYRQAPGKERELVAAISWSGGSTYYADSVKGRFTISRDNAKNTVYLQMNSLKPEDTAVYYCNTLNVQRDEHDYWGQGTQVTVSS,high polyreactivity
10,QVQLVESGGGLVQAGGSLRLSCAASGSTFPIYAMGWYRQAPGKERELVAAITRSGGSTNYADSVKGRFTISRDNAKNTVYLQMNSLKPEDTAVYYCNRTRYRSFHYDYWGQGTQVTVSS,high polyreactivity
11,QVQLVESGGGLVQAGGSLRLSSAASGITFGLYAMGWYRQPPGKERELVADITWSGGSTYYADSVKGRFTISRDNAKNTVYFQMNRLKPEDTAVYYCNADLYADESLFWFALYDYWGQGTQVTVSS,low polyreactivity
12,QVQLVESGGGLVQAGGSLRLSCAASGSIFSFNAMGWYRQAPGKERELVAVITQRGGSTYYADSVKGRFTISRDNAKNTVYLQMNSLKPEDTAVYYCAARTPRGYYYWGQGTQVTVSS,high polyreactivity
13,QVQLVESGGGLVQAGGSLRLSCAASGFTFDFYVMGWYRQAPGKERELVAAITSGGGTYYADSVKGRFTISRDNAKNTVYLQMNSLKPEDTAVYYCAVSVTTVSTYDYWGQGTQVTVSS,low polyreactivity
14,QVQLVESGGGLVQAGGSLRLSCAASGSTFDYYAMGWYRQAPGKERELVAAIRWSSGRTYYADSVKGRFTISRDNAKNTVYLQMNSLKPEDTAVYYCAARARGRYKRVALDYWGQGTQVTVSS,high polyreactivity
15,QVQLVESGGGLVQAGGSLRLSCAASGRTFNRNAMGWYRQAPGKERELVASITSRGGSTYYADSVKGRFTISRDNAKNTVYLQMNSLKPEDTAVYYCNATPKFFGRYWGYDYWGQGTQVTVSS,high polyreactivity
16,QVQIVESGGGLVQAVGSLRLSCAASGRIFHYNSMRWYRQAPGKERELVAAITDSTGGSTYYADSVKGRFTISRDNAKNTVYLQMNSLKPEDTAVYYFAAQDYQYSDYQWWFGYWGQGTKVTVSS,low polyreactivity
17,QVQLVESGGGLVQAGGSLRLSCAASGRILWGYAMGWYRQATGKERELVATITRGGSTNYADSVKGRFTISRDNAKNTFYLKMNRVKPEDTAFYDCAAGELYIVNYTYYFEMDYWGEGTQVTVSS,high polyreactivity
18,QVQLVESGGGLVQAGGSLRISCAASGSIFARYAMGWYRQAPGKERELVAAISKRGGSTYYADSVKGRFTISRDNAKNTVYLQMNSLKPEDTAVYYCAAVSYPPYTTKMDYWGQGTLVTVSS,high polyreactivity
19,QVQLVESGGGLVQAGGSLRLSCAASGRIFLRYAMGWYRQAPGKEREFVAAISYVGGSTYYADSVKGRFTISRDNAKNTVYLQMNILKPEDTAVYYCNADVPKSLLLYYPWGYGFWGQRTQVTVSS,low polyreactivity
20,QVQLVESGGGLVQAGGSLRLSCAASGIIFYGYVMGWYRQAPGKERELVAAISKSGGSTYYADSVKGRFTISRDIAKNTVYLQMNSLIPEDTAVYYCAAERKSFYRYNYWGQGTQVSVSS,high polyreactivity
21,QVHLVESGGGLVQAGGSLRLSCAASGSILVWYAMGWYRHAPGKERELVAAISQSGGRTYYADSVKGRFTISRDNAKNNVYLQMNSLKPEDTAVYYGAAFYTSYWGYDYDYWGQGTQVTVSS,low polyreactivity
